For four sequences, Kd results are on record in the Immune Epitope Database (IEDB).

One experiment deals with HLA-A*24:02. In words: IEDB peptide-MHC binding, purified MHC/competitive/fluorescence; filed as Kd, often an IC50 or EC50 that approximates it; ≥ and ≤ were set here for values at or beyond the usual limits of such assays.
The target of the next experiment is HLA-C*15:02. Kind of experiment: IEDB peptide-MHC binding, purified MHC/direct/fluorescence; filed as Kd, often an IC50 or EC50 that approximates it; ≥ and ≤ were set here for values at or beyond the usual limits of such assays. The note with it: source organism: Giardia lamblia ATCC 50803.
Another experiment addresses HLA-C*14:02. The experiment is described as above. Conditions: source organism: Giardia lamblia ATCC 50803.
A further experiment deals with HLA-C*06:02. The description is as above.
In another experiment the target is HLA-A*02:03. Kind of experiment: IEDB peptide-MHC binding, purified MHC/competitive/fluorescence; filed as Kd, often an IC50 or EC50 that approximates it; ≥ and ≤ were set here for values at or beyond the usual limits of such assays.
The target in experiment [1] is HLA-A*30:01. Described as above. Conditions: source organism: Vaccinia virus WR.
The next experiment deals with HLA-B*35:01. Described as above. The note with it: source organism: Vaccinia virus WR.
The target in the next experiment is HLA-B*27:05. In words: IEDB peptide-MHC binding, purified MHC/direct/fluorescence; filed as Kd, often an IC50 or EC50 that approximates it; ≥ and ≤ were set here for values at or beyond the usual limits of such assays.
The target in another experiment is HLA-B*15:01. The description is as above.
The target in experiment [2] is HLA-B*08:01. The experiment is described as above. Conditions: source organism: Variola virus.
For another experiment, the target named is HLA-A*01:01. The description is as above.
For a further experiment, the target named is HLA-A*69:01. The experiment is described as above.
Another experiment concerns the target HLA-B*18:01. Described as above.
The target in the next experiment is HLA-B*46:01. Described as above.
A further experiment addresses HLA-A*26:01. Described as above. Conditions: source organism: Variola virus.
A further experiment addresses HLA-B*08:02. The experiment is described as above. The note with it: source organism: Variola virus.
In experiment [3] the target is HLA-A*02:01. The description is as above. Conditions: source organism: Camelpox virus M-96.
In a further experiment the target is HLA-B*40:01. Described as above.
Experiment [4] has as its target HLA-B*15:17. The experiment is described as above. Conditions: source organism: Camelpox virus M-96.
Another experiment concerns the target HLA-B*07:02. Described as above. Conditions: source organism: Camelpox virus M-96.
A further experiment concerns the target HLA-B*38:01. The description is as above.
A further experiment concerns the target HLA-B*57:01. The description is as above.
For experiment [5], the target named is HLA-B*39:01. The description is as above. Conditions: source organism: Camelpox virus M-96.
The target in another experiment is HLA-B*58:01. The description is as above.
A further experiment has as its target HLA-B*48:01. Described as above.
For the next experiment, the target named is HLA-A*68:02. The description is as above. Conditions: source organism: Camelpox virus M-96.
The target of experiment [6] is HLA-B*08:01. Kind of experiment: IEDB peptide-MHC binding, purified MHC/competitive/fluorescence; filed as Kd, often an IC50 or EC50 that approximates it; ≥ and ≤ were set here for values at or beyond the usual limits of such assays. The note with it: source organism: Vibrio cholerae MO10.
The target of the next experiment is HLA-A*03:01. The experiment is described as above. Conditions: source organism: Vibrio cholerae MO10.
For experiment [7], the target named is HLA-A*02:01. The description is as above. The note with it: source organism: Vibrio cholerae MO10.
The target of experiment [8] is HLA-B*15:17. The description is as above. The note with it: source organism: Vibrio cholerae MO10.
The target in another experiment is HLA-A*31:01. Described as above. Conditions: source organism: Vibrio cholerae MO10.
Experiment [9] addresses HLA-B*39:01. The experiment is described as above. The note with it: source organism: Vibrio cholerae MO10.
In a further experiment the target is HLA-A*24:03. In words: IEDB peptide-MHC binding, purified MHC/direct/fluorescence; filed as Kd, often an IC50 or EC50 that approximates it; ≥ and ≤ were set here for values at or beyond the usual limits of such assays. The note with it: source organism: Vibrio cholerae V52.
In the next experiment the target is HLA-A*29:02. Described as above. The note with it: source organism: Vibrio cholerae V52.
A further experiment has as its target HLA-A*02:12. The description is as above. Conditions: source organism: Vibrio cholerae V52.
Experiment [10] concerns the target HLA-A*30:01. Described as above. The note with it: source organism: Vibrio cholerae V52.
Another experiment deals with HLA-B*51:01. Described as above. The note with it: source organism: Vibrio cholerae V52.
Another experiment has as its target HLA-A*11:01. The description is as above. Conditions: source organism: Vibrio cholerae.
In the next experiment the target is HLA-B*15:09. Described as above. Conditions: source organism: Vibrio cholerae V52.
Another experiment addresses HLA-A*23:01. The description is as above. Conditions: source organism: Vibrio cholerae V52.
In the next experiment the target is HLA-B*44:02. The experiment is described as above. The note with it: source organism: Vibrio cholerae V52.
The next experiment deals with HLA-A*02:19. The description is as above. The note with it: source organism: Vibrio cholerae V52.
Setting [11] is: source organism: Giardia lamblia ATCC 50803.
Where [12] appears, read: source organism: Camelpox virus M-96.
Setting [13] is: source organism: Vibrio cholerae.
The mark [14] stands for this setting: source organism: Vibrio cholerae V52.
Setting [15] is: source organism: Bacillus anthracis str. A0488.

Broadly, the Kd is the constant that tells how readily two partners part at equilibrium. A low value points to tighter binding. Turning to RYYLSFFHI, the dissociation constant Kd in the experiment with HLA-A*24:02 (setting [11]) was 0.0014 µM; with HLA-C*15:02, no less than 20 µM; in the experiment with HLA-C*14:02 it was 0.03 µM; in the experiment with HLA-C*06:02 (setting [11]), no less than 20 µM.
Take TESDAIRTL: the Kd was no less than 20 µM with HLA-A*02:03 (source organism: Vaccinia virus WR); no less than 20 µM with HLA-A*30:01 [1]; 3.71 µM with HLA-B*35:01; no less than 20 µM with HLA-B*27:05 (setting [12]); no less than 20 µM with HLA-B*15:01 (setting [12]); no less than 20 µM in the experiment with HLA-B*08:01 [2]. The dissociation constant Kd with HLA-A*01:01 (setting [12]) was no less than 20 µM; with HLA-A*69:01 (setting [12]), no less than 20 µM; with HLA-B*18:01 (setting [12]), 0.017 µM; with HLA-B*46:01 (setting [12]), no less than 20 µM; in the experiment with HLA-A*26:01 it was no less than 20 µM; with HLA-B*08:02 it was no less than 20 µM. Moreover, the Kd in the experiment with HLA-A*02:01 [3] is no less than 20 µM; in the experiment with HLA-B*40:01 (setting [12]), 0.0225 µM; with HLA-B*15:17 [4], no less than 20 µM; with HLA-B*07:02 it was no less than 20 µM; with HLA-B*38:01 (source organism: Variola virus), 3.77 µM; in the experiment with HLA-B*57:01 (setting [12]), no less than 20 µM. Moreover, the Kd is 0.118 µM with HLA-B*39:01 [5], no less than 20 µM in the experiment with HLA-B*58:01 (setting [12]), no less than 20 µM with HLA-B*48:01 (setting [12]) and no less than 20 µM in the experiment with HLA-A*68:02.
On to EVNAHIHTM, for which the Kd with HLA-B*08:01 [6], with HLA-A*02:03 (source organism: Vibrio cholerae MO10), in the experiment with HLA-A*03:01, with HLA-A*02:01 [7], in the experiment with HLA-B*15:17 [8] and with HLA-A*31:01 was no less than 20 µM throughout. For the same sequence, the Kd in the experiment with HLA-B*39:01 [9] was 1.33 µM; with HLA-B*27:05 (setting [13]) it was no less than 20 µM; in the experiment with HLA-B*15:01 (setting [14]) it was no less than 20 µM; with HLA-A*24:03, no less than 20 µM; in the experiment with HLA-A*29:02 it was no less than 20 µM; with HLA-A*01:01 (setting [13]) it was no less than 20 µM. Also, the Kd with HLA-A*02:12 was no less than 20 µM; with HLA-A*69:01 (setting [13]), no more than 0.001 µM; with HLA-B*18:01 (setting [14]) it was 1.84 µM; with HLA-A*30:01 [10] it was no less than 20 µM; with HLA-B*46:01 (setting [13]) it was no less than 20 µM; with HLA-B*51:01, no less than 20 µM. Moreover, the dissociation constant (Kd) with HLA-B*40:01 (setting [13]), with HLA-B*38:01 (setting [14]), in the experiment with HLA-A*11:01, in the experiment with HLA-B*15:09, with HLA-A*23:01 and with HLA-B*44:02 was no less than 20 µM in each case. Moreover, the Kd with HLA-B*57:01 (setting [13]), with HLA-B*58:01 (setting [13]), with HLA-A*02:19 and with HLA-B*48:01 (setting [13]) was no less than 20 µM in each case.
Consider IYPFHVQKI, for which the dissociation constant (Kd) is no more than 0.0001 µM with HLA-A*24:02 (setting [15]) and 0.816 µM with HLA-C*06:02 (setting [15]).
